The text below walks through data of PMC11153131.

The target in the assay is recombinant LDLR protein, extracellular domain, immobilised on the QCM chip (human) (UniProt P01130). Briefly: quartz crystal microbalance (QCM).

A word on the Kd: it is the constant that tells how readily two partners part at equilibrium. What is called koff is a measure of how fast the partners let go of each other. By kon is commonly meant a measure of how fast the partners come together.

As for “GP38, a secreted CCHFV glycoprotein (from UniProt Q8JSZ3 248-519) (natural protein)”, the Kd is 180 nM.
For Human Fc-tagged CCHFV Gc (Fc fusion), the Kd stood at 3.3 nM, the koff was 5.9e-05 s⁻¹ and the kon was 13000 M⁻¹ s⁻¹.
For the substance “unlabelled LDL from human plasma (complex)”, the Kd amounted to 3 nM, the koff amounted to 0.00112 s⁻¹ and the kon was found to be 255000 M⁻¹ s⁻¹.
